Measurements reported in publication PMC7954794, “Protein context shapes the specificity of SH3 domain-mediated interactions in vivo” (Nature Communications, 2021).

B1: S. cerevisiae Abp1 (full length; SH3 domain 535-592 mutated) / Hua2 (parent)
chain 1: MALEPIDYTTHSREIDAEYLKIVRGSDPDTTWLIISPNAKKEYEPESTGSSFHDFLQLFDETKVQYGLARVSPPGSDVEKIIIIGWCPDSAPLKTRASFAANFAAVANNLFKGYHVQVTARDEDDLDENELLMKISNAAGARYSIQTSSKQQGKASTPPVKKSFTPSKSPAPVSKKEPVKTPSPAPAAKISSRVNDNNDDDDWNEPELKERDFDQAPLKPNQSSYKPIGKIDLQKVIAEEKAKEDPRLVQKPTAAGSKIDPSSDIANLKNESKLKRDSEFNSFLGTTKPPSMTESSLKNDDDKVIKGFRNEKSPAQLWAERKAKQNSGNAETKAEAPKPEVPEDEPEGEPDVKDLKSKFEGLAASEKEEEEMENKFAPPPKKSEPTIISPKPFSKPQEPVKAEEAEQPKTDYKKIGNPLPGMHIEADNEEEPEENDDDWDDDEDEAAQPPLPSRNVASGAPVQKEEPEQEEIAPSLPSRNSIPAPKQEEAPEQAPEEEIEEEAEEAAPQLPSRSSAAPPPPPRRATPEKKPKENPWATAEYDYDAAEDNELTFVENDKIINIEFVDDDWWLGELEKDGSKGLFPSNYVSLGN
chain 2: MQQTKFGKMYLDHDSVVEYSEDEIVEADRITLGYKKRLSMIENQMRHLLEDFSLDVQQIEPILADLQKYYDAFLQLLQKRNKSLQCKRSTHQPVPSPMNSQTSTNAKVNLSGKLMKFQLNSVQKFDEENILRILQNKIEFEHYFQIDKGKKQKVLLLAVYQCLNGPTRLHKVLNIEGIIHNNSIRTILGKQVSSSKWTVFLYDVKLVLLAHRQDVPNLETSKMIVRYGDLFPCALYFKDHTAY

Variants of: B1
Experiment: DHFR protein-fragment complementation in yeast (Abp1-DHFR F[1,2] x partner-DHFR F[3]), deep mutational scanning, second methotrexate selection vs reference
Details: with Hua2; S. cerevisiae, DHFR-PCA selection in liquid with methotrexate at 30 C, two 72 h selections (the score uses the second); reference = the pre-selection culture; not an affinity; scale: DMS score: mean over two replicates of log2(f_test/f_ref + 0.5)/ln 2, minus the synonymous-codon median

Row | Variant | screen value
1 | chain 1 D542V | -1.37
2 | chain 1 D542Y | -1.41
3 | chain 1 D542L | -1.84
4 | chain 1 L571P | -2.25
5 | chain 1 L571G | -1.24
6 | chain 1 K558N | -1.29
7 | chain 1 K558D | -2.59
8 | chain 1 K558W | -2.78
9 | chain 1 K558G | -2.62
10 | chain 1 F564V | -2.3
11 | chain 1 F564C | -1.62
12 | chain 1 F564A | -2.55
13 | chain 1 F564N | -2.93
14 | chain 1 F564W | -2.35
15 | chain 1 F564I | -1.74
16 | chain 1 F564L | -1.7
17 | chain 1 F564S | -2.74
18 | chain 1 F564T | -2.07
19 | chain 1 F564G | -2.97
20 | chain 1 F564D | -2.53
21 | chain 1 G581A | -2.84
22 | chain 1 G581S | -2.77
23 | chain 1 G581D | -2.22
24 | chain 1 G581R | -2.96

Row | Variant | screen value
25 | chain 1 G581V | -2.59
26 | chain 1 G581C | -2.66
27 | chain 1 G572V | -2.77
28 | chain 1 G572R | -2.78
29 | chain 1 G572E | -2.36
30 | chain 1 G572W | -2.24
31 | chain 1 L582C | -2.82
32 | chain 1 L582N | -2.32
33 | chain 1 L582P | -2.04
34 | chain 1 L582S | -2.57
35 | chain 1 L582H | -1.2
36 | chain 1 L582Q | -2.88
37 | chain 1 L582V | -2
38 | chain 1 D557Y | -2.77
39 | chain 1 D557N | -1.63
40 | chain 1 D557M | -2.77
41 | chain 1 D557V | -2.87
42 | chain 1 D557A | -2.31
43 | chain 1 D557G | -2.9
44 | chain 1 D557S | -2.41
45 | chain 1 D557C | -2.97
46 | chain 1 D557K | -2.91
47 | chain 1 E555W | -1.84
48 | chain 1 N561A | -2.29

Row | Variant | screen value
49 | chain 1 F583I | -1.72
50 | chain 1 F583V | -2.31
51 | chain 1 F583L | -1.78
52 | chain 1 F583S | -2.62
53 | chain 1 F583C | -2.31
54 | chain 1 F583Y | -1.68
55 | chain 1 L551P | -1.38
56 | chain 1 L551V | -1.51
57 | chain 1 L551Q | -2.06
58 | chain 1 L551E | -2.9
59 | chain 1 L551T | -2.85
60 | chain 1 L551F | -2.93
61 | chain 1 L551R | -2.52
62 | chain 1 D568C | -2.91
63 | chain 1 D577G | -1.18
64 | chain 1 D577H | -2.21
65 | chain 1 D577N | -2.24
66 | chain 1 D577W | -2.9
67 | chain 1 D577M | -2.7
68 | chain 1 D577Y | -2.59
69 | chain 1 D577K | -2.12
70 | chain 1 D577Q | -2.41
71 | chain 1 D577L | -2.96
72 | chain 1 D577A | -1.59

Row | Variant | screen value
73 | chain 1 D577E | -1.09
74 | chain 1 D577V | -2.26
75 | chain 1 D577R | -2.77
76 | chain 1 L574Q | -1.79
77 | chain 1 L574S | -1.23
78 | chain 1 L574G | -2.91
79 | chain 1 L574H | -1.08
80 | chain 1 L574A | -1.53
81 | chain 1 L574P | -2.01
82 | chain 1 K576I | -1.18
83 | chain 1 K576L | -1.83
84 | chain 1 K576Y | -1.6
85 | chain 1 K576F | -2.16
86 | chain 1 K576W | -2.17
87 | chain 1 K576P | -2.88
88 | chain 1 K576V | -1.06
89 | chain 1 K576M | -1.51
90 | chain 1 K576D | -1.75
91 | chain 1 I559N | -2.48
92 | chain 1 I559F | -1.21
93 | chain 1 I559S | -1.61
94 | chain 1 I559T | -2.21
95 | chain 1 I559M | -1.42

Results, then the variant that gave them:

Row | screen value | Variant
96 | -2.5 | chain 1 N586F
97 | -2.53 | chain 1 N586W
98 | -2.41 | chain 1 N586Y
99 | -2.87 | chain 1 V588F
100 | -2.21 | chain 1 V588L
101 | -2.8 | chain 1 V588W
102 | -2.04 | chain 1 V588E
103 | -2.95 | chain 1 V588D
104 | -2.23 | chain 1 V588G
105 | -2.13 | chain 1 V588T
106 | -2.59 | chain 1 V588I
107 | -1.92 | chain 1 V588M
108 | -1.52 | chain 1 V588A
109 | -1.17 | chain 1 N561E
110 | -2.43 | chain 1 N561M
111 | -1.4 | chain 1 N561G
112 | -2.5 | chain 1 N561Y
113 | -2.22 | chain 1 N561C
114 | -2.12 | chain 1 N561R
115 | -1.98 | chain 1 N561Q
116 | -1.97 | chain 1 N561I
117 | -2.28 | chain 1 N561S
118 | -1.97 | chain 1 N561T
119 | -2.38 | chain 1 S589P
120 | -1.12 | chain 1 S589Y
121 | -1.59 | chain 1 S585I

Row | screen value | Variant
122 | -2.07 | chain 1 S585E
123 | -1.57 | chain 1 W570C
124 | -2.79 | chain 1 W570F
125 | -2.48 | chain 1 W570G
126 | -2.68 | chain 1 W570N
127 | -2.58 | chain 1 W570R
128 | -2.31 | chain 1 W570Y
129 | -2.8 | chain 1 W570S
130 | -2.25 | chain 1 W570L
131 | -1.66 | chain 1 W536L
132 | -1.58 | chain 1 W536I
133 | -1.97 | chain 1 W536D
134 | -1.3 | chain 1 W536A
135 | -1.23 | chain 1 W536N
136 | -1.76 | chain 1 W536K
137 | -1.3 | chain 1 W536R
138 | -2.87 | chain 1 W536P
139 | -2.23 | chain 1 W536G
140 | -1.43 | chain 1 Y587N
141 | -1.66 | chain 1 Y587W
142 | -2.16 | chain 1 Y587D
143 | -2.81 | chain 1 Y587Q
144 | -2.3 | chain 1 Y541T
145 | -2.42 | chain 1 Y541I
146 | -1.86 | chain 1 Y541G

Same assay, conditions: with Hua2; S. cerevisiae, DHFR-PCA selection in liquid with methotrexate at 30 C, two 72 h selections (the score uses the second); reference = the pre-selection culture; not an affinity; value at the no-binding floor (a bound); scale: DMS score: mean over two replicates of log2(f_test/f_ref + 0.5)/ln 2, minus the synonymous-codon median

Row | screen value | Variant
147 | < -3.06 | chain 1 D557W
148 | < -3.06 | chain 1 D557R
149 | < -3.06 | chain 1 D557F
150 | < -3.06 | chain 1 D557I
151 | < -3.06 | chain 1 D557L
152 | < -3.06 | chain 1 F583A
153 | -3.01 | chain 1 A539W
154 | < -3.06 | chain 1 A539Y
155 | < -3.06 | chain 1 A539L
156 | < -3.06 | chain 1 A539K
157 | -3.03 | chain 1 A539Q
158 | < -3.06 | chain 1 A539N
159 | -3 | chain 1 A539D
160 | -3.01 | chain 1 A539I
161 | < -3.06 | chain 1 A539M
162 | < -3.06 | chain 1 A539F
163 | -3.02 | chain 1 A539R
164 | < -3.06 | chain 1 D568P
165 | < -3.06 | chain 1 D577P
166 | -2.99 | chain 1 D577I
167 | -2.98 | chain 1 D577F
